Experimental data as given in the supplement of paper PMC7125110.
± gives the standard error. For some of these results: Variants at the floor of the assay were thinned out.

B1: glmS ribozyme (parent)
chain: AUAAAAGCGCCAGAACUACAGAAAUGUAGUUGACGAGGAGGAGGUUUAUCGAAUUUUCGGCGGAUGCCUCCAAA

Key:
Settings in all cases: with glucosamine-6-phosphate
glucosamine-6-phosphate [1] = variants of: B1; experiment: kcat; higher = faster cleavage; RNA array
Summary of the method: (§1)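 Glucosamine-6-phosphate (40 μM to 10 mM) in HEPES/KCl/Mg(OAc)2 buffer was flowed over sequenced MiSeq chips, and tiles were imaged over ~14 h. Barcoded ribozyme variants there had been transcribed in situ by E. coli RNA polymerase and were tracked through a hybridised Cy3 probe at 37 °C. One- or two-exponential decay fits to per-tile medians, normalised to baseline and to non-cleaving reference variants, gave kobs. kcat and KM came from weighted Michaelis–Menten fits across concentrations.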

glucosamine-6-phosphate [2] = variants of: B1; experiment: self-cleavage kobs at 10000 uM GlcN6P; higher = faster cleavage; RNA array
Summary of the method: as §1

glucosamine-6-phosphate [3] = variants of: B1; experiment: KM; higher = weaker cofactor use; RNA array
Summary of the method: as §1

glucosamine-6-phosphate [4] = variants of: B1; experiment: self-cleavage kobs at 40 uM GlcN6P; higher = faster cleavage; RNA array
Summary of the method: as §1

glucosamine-6-phosphate [5] = variants of: B1; experiment: self-cleavage kobs at 160 uM GlcN6P; higher = faster cleavage; RNA array
Summary of the method: as §1

glucosamine-6-phosphate [6] = variants of: B1; experiment: self-cleavage kobs at 640 uM GlcN6P; higher = faster cleavage; RNA array
Summary of the method: as §1

glucosamine-6-phosphate [7] = variants of: B1; experiment: self-cleavage kobs at 2500 uM GlcN6P; higher = faster cleavage; RNA array
Summary of the method: as §1

Variant	kcat (glucosamine-6-phosphate [1]) [s⁻¹]	self-cleavage kobs at 10000 uM GlcN6P (glucosamine-6-phosphate [2]) [s⁻¹]	KM (glucosamine-6-phosphate [3]) [µM]	self-cleavage kobs at 40 uM GlcN6P (glucosamine-6-phosphate [4]) [s⁻¹]	self-cleavage kobs at 160 uM GlcN6P (glucosamine-6-phosphate [5]) [s⁻¹]	self-cleavage kobs at 640 uM GlcN6P (glucosamine-6-phosphate [6]) [s⁻¹]	self-cleavage kobs at 2500 uM GlcN6P (glucosamine-6-phosphate [7]) [s⁻¹]
A33U A53G C70U	0.000178 ± 1.5e-05	5.75e-05 ± 9.2e-06					
C16U U31G	0.0126 ± 0.0042	0.0111 ± 0.0031	3460 ± 1500	0.000138 ± 2.7e-05	0.00118 ± 0.00045	0.00226 ± 0.00062	0.00478 ± 0.00085
A15G G60U	< 1e-05			< 1e-05	< 1e-05	< 1e-05	
U30A C71U	0.0039 ± 0.00081	0.00416 ± 0.00086	1470 ± 450	0.000127 ± 2.5e-05	0.000337 ± 8e-05	0.00116 ± 0.00024	0.0021 ± 0.00045
C16U G63A	< 1e-05	< 1e-05		< 1e-05			< 1e-05
A53C A64C	8.21e-05 ± 2.3e-05	6.96e-05 ± 1.6e-05					
A14U G40U	0.00162 ± 0.0004	0.00123 ± 0.00015	4230 ± 1500	3.43e-05 ± 1.2e-05	6.75e-05 ± 1.2e-05	0.000205 ± 3e-05	0.000535 ± 7.1e-05
U47G A52G	0.000681 ± 0.00017	0.000619 ± 0.00013	1570 ± 620		8.74e-05 ± 1.5e-05	0.00017 ± 2.3e-05	0.000443 ± 6.8e-05
G41U A52U	0.000103 ± 1e-05	8.78e-05 ± 1.2e-05	1340 ± 510				7.47e-05 ± 1.3e-05
C10U U31G	2.34e-05 ± 1.5e-06		552 ± 200	< 1e-05			
A15U C70U	0.00472 ± 0.0018	0.00469 ± 0.00065	1330 ± 650	0.000195 ± 1.7e-05	0.000378 ± 4.7e-05	0.00147 ± 0.00031	0.00286 ± 0.00048
G40U U45C C70U	0.000444 ± 6.4e-05	0.000426 ± 7.7e-05	1000 ± 370			0.000186 ± 3.9e-05	0.00025 ± 8.8e-05
A12C G44C	4.97e-05 ± 2.4e-06	3.51e-05 ± 7.6e-06	4150 ± 610		< 1e-05		
A14C U30G	0.00408 ± 0.001	0.00267 ± 0.00036	5380 ± 1800	5.32e-05 ± 1.3e-05	0.000107 ± 2e-05	0.000417 ± 7.1e-05	0.00127 ± 0.00034
G29A C50A	1.1e-05 ± 3.2e-06						
G43U U54C	6.24e-05 ± 1.8e-06	3.65e-05 ± 1.6e-05	7100 ± 410				
